This note sets out measurements from patent publication US12527821B2, “Compositions and methods related to tumor cell killers and vaccines” (THE BRIGHAM AND WOMEN'S HOSPITAL, INC., priority 2018, dated 2026).

One assay deals with rGBMiDR4/5-ST-TK. Kind of assay: GCV titration of DR4/5 knockout line with HSV-TK in vitro. Format: cell-based, human. The settings on record: as opposed to non-TK control lines. The method, then:
(§1) Thus, should tumors acquire a DRL-resistant phenotype during adjuvant clinical therapy and tumor recurrence, TK-induced bystander effect of therapeutic self-cells might still provide robust treatment efficacy.
(§2) Lentiviral transductions and engineering of stable cell lines: Lentiviral packaging was performed by transfection of 293T cells as previously described (73), and cells were transduced with lentiviral vectors at M.O.I of 2 in medium containing protamine sulfate (2 μg/ml). For bioluminescence imaging, cancer cells were transduced with LV-Pico2-Fluc-mCherry, LV-Pico2-Rluc-mCherry, or LV-Pico2-Fluc-GFP and selected by FACS using a BD FACSAriaTM Fusion cell sorter or puromycin selection (1 μg/ml) in culture. GFP or mCherry expression was visualized by fluorescence microscopy. […] Cell viability was measured using an ATP-dependent luminescent reagent (CellTiter Glo, Promega) for non-Fluc expressing cells, or with luciferin or coelenterazine for Fluc- and Rluc-expressing cells, respectively. Caspase activity was determined using a DEVD-aminoluciferin assay (Caspase-3/7 Glo, Promega) according to the manufacturer's instructions. Experiments were performed in triplicate. […]

A further assay has as its system rGBMnDR4/5-ST-TK. The description is as above. It is filed as cell-based, human. Conditions: as opposed to non-TK control lines. The method, then: as §1, §2
Assay [1] deals with 293 Ts engineered with LV-IFNβ/zeo-HSV/TK. In words: Cell viability after GCV treatment. It is filed as cell-based.
For a further assay, the system named is rGBMnDR4/5-ST-TK-GF1. In words: Intracranial implantation of sECM-encapsulated rGBMnDR4/5-ST-TK-GF1 in SCID mice, growth and GCV clearance (BLI). It is filed as in vivo. The source says:
(1) Nodular recurrent GBM resection model: Local retention of therapeutic cells can be achieved by encapsulation of therapeutic cells into biodegradable synthetic extracellular matrix (sECM) before implantation into the resection cavity (16).

Assay [2] has as its system CT2a-GMCSF-mIFNaR1KO engineered with LV-IFNβ/zeo-HSV/TK. Kind of assay: Cell viability after GCV treatment. Format: cell-based, mouse. The source says: FIG. 2A details the concept to test if CT2a-IFNaR1-KO can be engineered with LV-IFNβ/zeo-HSV/TK.
The subject of another assay is rGBMi2-ST-TK. Kind of assay: 18F-FHBG PET imaging of GCV-induced cell clearance. Conditions: after 10 days of daily GCV treatment. Format: in vivo, mice.
Another assay relates to rGBMi2-TK cells. Kind of assay: GCV-induced clearance of HSV-TK engineered rGBM in vitro (cell viability). Format: cell-based, human. The settings on record: in comparison to controls.
Assay [3] deals with panel of different cancer cell lines. Kind of assay: Screen of receptor-targeted ligands/antagonists on a panel of cancer cell lines. Conditions: 72 hours after treatment; versus TSP, Nb, IL24. It is filed as cell-based, human.
Excerpt: To investigate the therapeutic efficacy of receptor-targeted molecules, the Inventors tested a panel of different cancer cell lines for their susceptibility to treatment with cell surface receptor ligands/antagonists targeting CD36 (thrombospondin-1, TSP), epidermal growth factor receptor (EGFR) (EGFR-blocking nanobody, Nb), heterodimeric interleukin 20 receptor (IL20R) comprised of subunits α and β (interleukin 24, IL24), and DRs (TRAIL) (FIG. 6 C). A nodular (n) and an invasive (i) GBM cell line (Gli36Δ-EGFR and GBM8, respectively) were screened and found to be DR ligand (DRL)-sensitive(s) (herein referred to as sGBMn and sGBMi). […]
as §2, with “For bioluminescence imaging, cancer cells were transduced with LV-Pico2-Fluc-mCherry, LV-Pico2-Rluc-mCherry, or LV-Pico2-Fluc-GFP and selected by FACS using a BD FACSAriaTM Fusion cell sorter or puromycin selection (1 μg/ml) in culture.” left out, “instructions.” for “instructions. Experiments were performed in triplicate.”

The subject of a further assay is HCT116 (sCC). In words: TRAIL sensitivity screen/titration (cell viability). Format: cell-based, human. The source says: (§3) To investigate the therapeutic efficacy of receptor-targeted molecules, the Inventors tested a panel of different cancer cell lines for their susceptibility to treatment with cell surface receptor ligands/antagonists targeting CD36 (thrombospondin-1, TSP), epidermal growth factor receptor (EGFR) (EGFR-blocking nanobody, Nb), heterodimeric interleukin 20 receptor (IL20R) comprised of subunits α and β (interleukin 24, IL24), and DRs (TRAIL) (FIG. 6 C). A nodular (n) and an invasive (i) GBM cell line (Gli36Δ-EGFR and GBM8, respectively) were screened and found to be DR ligand (DRL)-sensitive(s) (herein referred to as sGBMn and sGBMi). The following non-GBM cancer lines were also identified as DRL-sensitive: PC3 (sPCm), Jurkat (sTCL), HCT116 (sCC), and MDA231-BrM2a (sBCm). […] In addition to the above DRL-sensitive(s) cell lines, three DRL-resistant (r) GBM cell lines were identified (GBM23, GBM64, GBM46, herein referred to as rGBMi1, rGBMi2, rGBMi3) (FIG. 6D). Based on these findings, DR4 and DR5 were chosen as the most suitable candidates to further investigate the therapeutic potential of receptor self-targeted therapies.
(§4) Lentiviral transductions and engineering of stable cell lines: Lentiviral packaging was performed by transfection of 293T cells as previously described (73), and cells were transduced with lentiviral vectors at M.O.I of 2 in medium containing protamine sulfate (2 μg/ml). For bioluminescence imaging, cancer cells were transduced with LV-Pico2-Fluc-mCherry, LV-Pico2-Rluc-mCherry, or LV-Pico2-Fluc-GFP and selected by FACS using a BD FACSAriaTM Fusion cell sorter or puromycin selection (1 μg/ml) in culture. GFP or mCherry expression was visualized by fluorescence microscopy. […] Cell viability was measured using an ATP-dependent luminescent reagent (CellTiter Glo, Promega) for non-Fluc expressing cells, or with luciferin or coelenterazine for Fluc- and Rluc-expressing cells, respectively. Caspase activity was determined using a DEVD-aminoluciferin assay (Caspase-3/7 Glo, Promega) according to the manufacturer's instructions. Experiments were performed in triplicate. For treatments with conditioned medium, plasmid vectors coding for secretable expression of CD36-targeting ligand 3TSR (a functional thrombospondin-1, TSP-1 analog) (09), EGFR-blocking ligand NB (12), IL-20Rα/β-targeting ligand IL-24 (69), and DR ligand S-TRAIL (69) were transfected into 293T cells. Medium was changed the next day, collected 40 hours after transfection, and frozen at −80° C. until further use.

The test system of another assay is GBM46 (rGBMi3). The description is as above. Format: cell-based, human.
Excerpt: as §3, §4

The next assay relates to GBM64 (rGBMi2). Described as above. It is filed as cell-based, human.
Excerpt: as §3, §4

The next assay relates to Gli36Δ-EGFR (sGBMn). The description is as above. Format: cell-based, human. The settings on record: nodular GBM cell line.
Excerpt: as §3, §4

Another assay relates to GBM23 (rGBMi1). Described as above. It is filed as cell-based, human.
Excerpt: as §3, §4

The next assay concerns MDA231-BrM2a (sBCm). The description is as above. It is filed as cell-based, human.
Excerpt: as §3, §4

Another assay has as its system PC3 (sPCm). The description is as above. It is filed as cell-based, human.
Excerpt: as §3, §4

The subject of a further assay is GBM8 (sGBMi). Described as above. It is filed as cell-based, human. The settings on record: invasive GBM cell line.
Excerpt: as §3, §4

For the next assay, the system named is Jurkat (sTCL). The description is as above. It is filed as cell-based, human.
Excerpt: as §3, §4

A value given as a limit tells only on which side of the number the result lay.

Experimental for rGBMi2-ST-TK: PET imaging: Mice implanted intracranially with rGBMi2-TK-GF1 were fasted for 4 hours before imaging, anesthetized with 2% isoflurane and 100% oxygen, and injected with 500 μCi of 18F-FHBG via the tail vein. Two hours later, a static dataset was acquired for 60 minutes in 1 bed position (FOV 4.2 cm) using an energy window of 250-700 keV for each mouse. Images were reconstructed using a 2D OSEM algorithm with 2 iterations and 16 subsets. For measuring the mean and maximum standardized uptake values (SUVmean and SUVmax) and metabolic tumor volume (MTV), three-dimensional (3D) regions of interest were drawn over the mouse brain, and uptake values were measured using the explore Vista software (GE Healthcare). The maximum intensity projection images were generated using ImageJ. After the baseline PET scan at day 0, mice were treated daily with GCV (10 mg/kg) and imaged again by PET at day 10 after GCV treatment.
Experimental for rGBMi2-TK cells: Cell viability and caspase assays: Tumor cells were plated in 96-well plates and treated with different doses of S-TRAIL for 24 hours and different doses of GCV for up to 96 hours. Cell viability was measured using an ATP-dependent luminescent reagent (CellTiter Glo, Promega) for non-Fluc expressing cells, or with luciferin or coelenterazine for Fluc- and Rluc-expressing cells, respectively. Caspase activity was determined using a DEVD-aminoluciferin assay (Caspase-3/7 Glo, Promega) according to the manufacturer's instructions. Experiments were performed in triplicate.

With `Nc1nc2c(ncn2COC(CO)CO)c(=O)[nH]1` [GCV, Ganciclovir], the “cell elimination by GCV” value in the assay with rGBMiDR4/5-ST-TK and in the assay on rGBMnDR4/5-ST-TK was “dose-dependent cell elimination” throughout. Moreover, the “cell-viability after GCV-treatment” value in [1] and in assay [2] was “dose-dependent reduction of cell-viability” each time. Besides, the “time to drop of BLI signal back to baseline” value in the assay on rGBMnDR4/5-ST-TK-GF1 (after initiation of GCV therapy) is at most 9 days. Also, the “GCV-induced (HSV-TK mediated) cell clearance” value in the assay with rGBMnDR4/5-ST-TK-GF1 (mouse, in vivo) is on record as “successful cell clearance”. The “tumor-specific PET signal intracranially” value with rGBMi2-ST-TK is listed as “no longer visible”. Further, the “elimination of rGBMi2-TK cells” value with rGBMi2-TK cells is “dose- and time-dependent elimination”.

B1: TNF-related apoptosis-inducing ligand (protein, listed as Homo sapiens)
chain: MAMMEVQGGPSLGQTCVLIVIFTVLLQSLCVAVTYVYFTNELKQMQDKYSKSGIACFLKEDDSYWDPNDEESMNSPCWQVKWQLRQLVRKMILRTSEETISTVQEKQQNISPLVRERGPQRVAAHITGTRGRSNTLSSPNSKNEKALGRKINSWESSRSGHSFLSNLHLRNGELVIHEKGFYYIYSQTYFRFQEEIKENTKNDKQMVQYIYKYTSYPDPILLMKSARNSCWSKDAEYGLYSIYQGGIFELKENDRIFVSVTNEHLIDMDHEASFFGAFLVG
notes: death receptor (DR4/5) ligand used to treat cancer cell lines
As for B1, the “efficacy in comparison to the other tested ligands” value in assay [3] is on record as “most effective agent”. For the same molecule, the “susceptibility to DR ligand (DRL)” value is recorded as “DRL-sensitive” in the assay with HCT116 (sCC); “DRL-resistant” with GBM46 (rGBMi3); “DRL-resistant” with GBM64 (rGBMi2); “sensitive” in the assay with Gli36Δ-EGFR (sGBMn); “DRL-resistant” in the assay with GBM23 (rGBMi1); “DRL-sensitive” in the assay with MDA231-BrM2a (sBCm). Also, the “susceptibility to DR ligand (DRL)” value is on record as “DRL-sensitive” in the assay on PC3 (sPCm), “sensitive” in the assay on GBM8 (sGBMi) and “DRL-sensitive” with Jurkat (sTCL).
